Target: T1, ephrinB2-Fc (human ephrinB2 residues 1-229, Factor XA cleavage site, human IgG1 residues 100-330) (human, UniProt P52799 28-229)
T1 chain: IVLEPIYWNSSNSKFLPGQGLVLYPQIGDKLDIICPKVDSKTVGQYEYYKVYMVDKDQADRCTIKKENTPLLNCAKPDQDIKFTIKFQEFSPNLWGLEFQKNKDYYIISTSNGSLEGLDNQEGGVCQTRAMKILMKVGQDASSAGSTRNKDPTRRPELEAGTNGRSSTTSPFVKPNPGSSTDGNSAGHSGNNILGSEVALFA
Test: ELISA

B1: Wildtype NiV G ectodomain (Nipah virus attachment glycoprotein G, residues 71-602, N-terminal His6-tag) (domain or fragment)
chain: QNYTRSTDNQAVIKDALQGIQQQIKGLADKIGTEIGPKVSLIDTSSTITIPANIGLLGSKISQSTASINENVNEKCKFTLPPLKIHECNISCPNPLPFREYRPQTEGVSNLVGLPNNICLQKTSNQILKPKLISYTLPVVGQSGTCITDPLLAMDEGYFAYSHLERIGSCSRGVSKQRIIGVGEVLDRGDEVPSLFMTNVWTPPNPNTVYHCSAVYNNEFYYVLCAVSTVGDPILNSTYWSGSLMMTRLAVKPKSNGGGYNQHQLALRSIEKGRYDKVMPYGPSGIKQGDTLYFPAVGFLVRTEFKYNDSNCPITKCQYSKPENCRLSMGIRPNSHYILRSGLLKYNLSDGENPKVVFIEISDQRLSIGSPSKIYDSLGQPVFYQASFSWDTMIKFGDVLTVNPLVVNWRNNTVISRPGQSQCPRFNTCPEICWEGVYNDAFLIDRINWISAGVFLDSNQTAENPVFTVFKDNEILYRAQLASEDTNAQKTITNCFLLKNKIWCISLVEIYDTGDNVIRPKLFAVKIPEQCT
B1 was tested, and the Ki was 0.038 nM.
